Non-standard residues stand in square brackets, D forms with d. No end group written: not given here. hArg = N=C(N)NCCCC[C@H](N)C(=O)O; dNle = CCCC[C@@H](N)C(=O)O
B1: neuromedin U receptor agonist Q (peptide)
peptide: FRVDEEFQSPFASQSRGFWLFRPR[dNle]-NH2
modifications: N-terminus assumed
SMILES: CCCC[C@@H](NC(=O)[C@H](CCCNC(=N)N)NC(=O)[C@@H]1CCCN1C(=O)[C@H](CCCNC(=N)N)NC(=O)[C@H](Cc1ccccc1)NC(=O)[C@H](CC(C)C)NC(=O)[C@H](Cc1c[nH]c2ccccc12)NC(=O)[C@H](Cc1ccccc1)NC(=O)CNC(=O)[C@H](CCCNC(=N)N)NC(=O)[C@H](CO)NC(=O)[C@H](CCC(N)=O)NC(=O)[C@H](CO)NC(=O)[C@H](C)NC(=O)[C@H](Cc1ccccc1)NC(=O)[C@@H]1CCCN1C(=O)[C@H](CO)NC(=O)[C@H](CCC(N)=O)NC(=O)[C@H](Cc1ccccc1)NC(=O)[C@H](CCC(=O)O)NC(=O)[C@H](CCC(=O)O)NC(=O)[C@H](CC(=O)O)NC(=O)[C@@H](NC(=O)[C@H](CCCNC(=N)N)NC(=O)[C@@H](N)Cc1ccccc1)C(C)C)C(N)=O
B2: neuromedin U receptor agonist P (peptide)
peptide: FRVDEEFQSPFASQSRGFWLFRA[hArg]N-NH2
modifications: N-terminus assumed
SMILES: CC(C)C[C@H](NC(=O)[C@H](Cc1c[nH]c2ccccc12)NC(=O)[C@H](Cc1ccccc1)NC(=O)CNC(=O)[C@H](CCCNC(=N)N)NC(=O)[C@H](CO)NC(=O)[C@H](CCC(N)=O)NC(=O)[C@H](CO)NC(=O)[C@H](C)NC(=O)[C@H](Cc1ccccc1)NC(=O)[C@@H]1CCCN1C(=O)[C@H](CO)NC(=O)[C@H](CCC(N)=O)NC(=O)[C@H](Cc1ccccc1)NC(=O)[C@H](CCC(=O)O)NC(=O)[C@H](CCC(=O)O)NC(=O)[C@H](CC(=O)O)NC(=O)[C@@H](NC(=O)[C@H](CCCNC(=N)N)NC(=O)[C@@H](N)Cc1ccccc1)C(C)C)C(=O)N[C@@H](Cc1ccccc1)C(=O)N[C@@H](CCCNC(=N)N)C(=O)N[C@@H](C)C(=O)N[C@@H](CCCCNC(=N)N)C(=O)N[C@@H](CC(N)=O)C(N)=O
B3: neuromedin U receptor agonist I (peptide)
peptide: FWLFRP[hArg]N-NH2
modifications: N-terminus assumed
SMILES: CC(C)C[C@H](NC(=O)[C@H](Cc1c[nH]c2ccccc12)NC(=O)[C@@H](N)Cc1ccccc1)C(=O)N[C@@H](Cc1ccccc1)C(=O)N[C@@H](CCCNC(=N)N)C(=O)N1CCC[C@H]1C(=O)N[C@@H](CCCCNC(=N)N)C(=O)N[C@@H](CC(N)=O)C(N)=O
B4: neuromedin U receptor agonist J (peptide)
peptide: FWLFRA[hArg]N-NH2
modifications: N-terminus assumed
SMILES: CC(C)C[C@H](NC(=O)[C@H](Cc1c[nH]c2ccccc12)NC(=O)[C@@H](N)Cc1ccccc1)C(=O)N[C@@H](Cc1ccccc1)C(=O)N[C@@H](CCCNC(=N)N)C(=O)N[C@@H](C)C(=O)N[C@@H](CCCCNC(=N)N)C(=O)N[C@@H](CC(N)=O)C(N)=O
B5: neuromedin U receptor agonist E (peptide)
peptide: Ac-F[dL]WRPRN-NH2
SMILES: CC(=O)N[C@@H](Cc1ccccc1)C(=O)N[C@H](CC(C)C)C(=O)N[C@@H](Cc1c[nH]c2ccccc12)C(=O)N[C@@H](CCCNC(=N)N)C(=O)N1CCC[C@H]1C(=O)N[C@@H](CCCNC(=N)N)C(=O)N[C@@H](CC(N)=O)C(N)=O
B6: neuromedin U receptor agonist D (peptide)
peptide: YF[dA]WRPRN-NH2
modifications: N-terminus assumed
SMILES: C[C@@H](NC(=O)[C@H](Cc1ccccc1)NC(=O)[C@@H](N)Cc1ccc(O)cc1)C(=O)N[C@@H](Cc1c[nH]c2ccccc12)C(=O)N[C@@H](CCCNC(=N)N)C(=O)N1CCC[C@H]1C(=O)N[C@@H](CCCNC(=N)N)C(=O)N[C@@H](CC(N)=O)C(N)=O
B7: neuromedin U receptor agonist B (peptide)
peptide: YF[dL]WRPRN-NH2
modifications: N-terminus assumed
SMILES: CC(C)C[C@@H](NC(=O)[C@H](Cc1ccccc1)NC(=O)[C@@H](N)Cc1ccc(O)cc1)C(=O)N[C@@H](Cc1c[nH]c2ccccc12)C(=O)N[C@@H](CCCNC(=N)N)C(=O)N1CCC[C@H]1C(=O)N[C@@H](CCCNC(=N)N)C(=O)N[C@@H](CC(N)=O)C(N)=O

Biological target: T1, human NMUR2 (human, UniProt Q9GZQ4 1-415)
Test: cell-based or functional assay

T1 sequence (Q9GZQ4 whole entry): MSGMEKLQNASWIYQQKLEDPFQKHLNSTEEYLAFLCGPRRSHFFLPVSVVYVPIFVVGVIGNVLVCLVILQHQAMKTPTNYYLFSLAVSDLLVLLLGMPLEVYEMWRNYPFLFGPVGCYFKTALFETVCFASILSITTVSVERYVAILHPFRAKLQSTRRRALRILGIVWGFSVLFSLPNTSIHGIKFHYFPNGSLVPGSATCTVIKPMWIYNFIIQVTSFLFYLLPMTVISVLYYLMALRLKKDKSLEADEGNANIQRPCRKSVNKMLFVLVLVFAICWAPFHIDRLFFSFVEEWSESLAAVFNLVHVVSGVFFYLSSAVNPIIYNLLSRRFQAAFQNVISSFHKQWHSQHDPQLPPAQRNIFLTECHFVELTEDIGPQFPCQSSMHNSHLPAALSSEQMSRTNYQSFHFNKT

Compared with B1, FALFRPRN-NH2 [neuromedin U receptor agonist N] is higher in “% activity” value: 97% for the first, 100% for the second.

Going from B2 to B3, the “% activity” value falls from 100% to 99%.

With B4 the “% activity” value was 59%.

First: B1
Second: FALFRPRN-NH2 [neuromedin U receptor agonist N]
The “EC50” value of the first is 4.7-fold higher: 18.3 nM for the first, 3.9 nM for the second.

First: B2
Second: B3
The “EC50” value of the first is 2.5-fold higher: 25 nM for the first, 10 nM for the second.

In the case of B4, the “EC50” value is reported as 160 nM.

Biological target: T2, human NMUR1 (human, UniProt Q9HB89 1-426)
T2 sequence (looked up): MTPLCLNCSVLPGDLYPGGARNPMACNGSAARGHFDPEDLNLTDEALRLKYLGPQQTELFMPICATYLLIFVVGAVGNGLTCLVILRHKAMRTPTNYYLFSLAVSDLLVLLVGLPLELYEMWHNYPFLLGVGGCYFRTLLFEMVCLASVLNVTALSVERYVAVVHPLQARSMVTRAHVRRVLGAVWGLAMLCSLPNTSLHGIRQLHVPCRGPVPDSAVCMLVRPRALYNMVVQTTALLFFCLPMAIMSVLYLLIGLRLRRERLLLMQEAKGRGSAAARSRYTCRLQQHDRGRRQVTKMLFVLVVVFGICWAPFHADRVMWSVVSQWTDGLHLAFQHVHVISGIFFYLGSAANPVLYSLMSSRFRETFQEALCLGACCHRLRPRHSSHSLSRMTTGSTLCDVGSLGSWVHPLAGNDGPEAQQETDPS
Test: cell-based or functional assay

First: B1
Second: FALFRPRN-NH2 [neuromedin U receptor agonist N]
The “% activity” value of the first is lower: 0% for the first, 87% for the second.

Going from B2 to B3, the “% activity” value falls from 11% to 7%.

B4 was tested, and the “% activity” value was 0%.

Going from B1 to FALFRPRN-NH2 [neuromedin U receptor agonist N], the “EC50” value falls from greater than 1000 nM to 53 nM.

First: B2
Second: B3
The “EC50” value of the first is lower: 46 nM for the first, greater than 1000 nM for the second.

In the case of B4, the “EC50” value is reported as greater than 1000 nM.

Biological target: T1, human NMUR2
Test: cell-based or functional assay
Remark: another data set of the same source

Going from FRVDEEFQSPFASQSRGYFWRPRN-NH2 [neuromedin U receptor agonist G] to YFGWRPRN-NH2 [neuromedin U receptor agonist C], the “% activity” value falls from 14% to 0%.

Compared with B5, B6 is lower in “% activity” value: 1.8% for the first, 0% for the second.

B7 was tested, and the “% activity” value was 0%.

FRVDEEFQSPFASQSRGYFWRPRN-NH2 [neuromedin U receptor agonist G] and YFGWRPRN-NH2 [neuromedin U receptor agonist C] cannot be ordered by “IC50 (nM), functional” value: greater than 1000 nM for the first, greater than 1000 nM for the second.

B5 and B6 cannot be ordered by “IC50 (nM), functional” value: greater than 1000 nM for the first, greater than 1000 nM for the second.

B7 was tested, and the “IC50 (nM), functional” value was greater than 1000 nM.

Biological target: T2, human NMUR1
Test: cell-based or functional assay
Remark: another data set of the same source

First: FRVDEEFQSPFASQSRGYFWRPRN-NH2 [neuromedin U receptor agonist G]
Second: YFGWRPRN-NH2 [neuromedin U receptor agonist C]
The “% activity” value of the first is higher: 91% for the first, 87% for the second.

First: B5
Second: B6
The “% activity” value of the first is higher: 100% for the first, 96% for the second.

For B7, the “% activity” value was 103%.

Going from FRVDEEFQSPFASQSRGYFWRPRN-NH2 [neuromedin U receptor agonist G] to YFGWRPRN-NH2 [neuromedin U receptor agonist C], the “IC50 (nM), functional” value falls from 8.4 nM to 1.1 nM (7.6-fold).

B5 and B6 are within 1.5-fold of each other in “IC50 (nM), functional” value: 1.9 nM for the first, 1.5 nM for the second.

In the case of B7, the “IC50 (nM), functional” value is reported as 9 nM.

Biological target: T1, human NMUR2
Test: 125I-hNMU-25 displacement, HEK cell membranes
Experimental: (§1) Confluent cell monolayers expressing NMU receptors (the HEK cells described above) were harvested with phosphate buffered saline, collected by centrifugation, and resuspended in membrane buffer (50 mM TrisCl pH 7.4, 5 mM MgCl₂, 1× Protease Inhibitor Cocktail, 10 μM phosphoramidon). After the cell pellet was homogenized, the solution was centrifuged at 18,000 rpm for 20 minutes at 4° C. The pellet was resuspended in membrane buffer to yield a final concentration of 0.5-5 μg/μL of membrane and stored at −80° C.
(§2) Experiments were performed in assay buffer (25 mM TrisCl, pH 7.4, 10 mM MgCl₂, 2mM EDTA, 1× Protease Inhibitor Cocktail, 100 μg/mL Bacitricin, 10 μM phosphoramidon) in 200 μL volumes in a 96-well format using 2-5 μg of membrane and […] ¹²⁵I-hNMU-25 (about 12,000 cpm/well). For non-specific binding, 1 μM hNMU-25 was added. About 5 μL of peptides were added to measure antagonist activity, and the entire reaction was incubated at room temperature with shaking for 80 minutes. The reaction was terminated by rapid filtration through 0.3% poly-ethylenimine presoaked Millipore 96-well filter plates and washed with ice-cold buffer (5 mM TrisCl pH 7.4, 10 mM MgCl₂, 2.5 mM EDTA, 0.04% Triton X-100). Plates were air-dried overnight at room temperature and recovered radioactivity was determined by standard scintillation counting. IC₅₀ values were determined using GraphPad Prism software.
(§3) Concentration-response curves and radioligand-binding data were fitted using Prism (GraphPad Software). Results are summarized below in Tables 8 and 9.

Compared with B1, FRVDEEFQSPFASQSRGYFWRPRN-NH2 [neuromedin U receptor agonist G] is lower in “% activity (binding)” value: 89% for the first, 33% for the second.

Going from FALFRPRN-NH2 [neuromedin U receptor agonist N] to YFGWRPRN-NH2 [neuromedin U receptor agonist C], the “% activity (binding)” value falls from 100% to 0%.

Compared with B5, B2 is higher in “% activity (binding)” value: 5% for the first, 81% for the second.

Going from B6 to B3, the “% activity (binding)” value rises from 0% to 90%.

First: B4
Second: B7
The “% activity (binding)” value of the first is higher: 63% for the first, 35% for the second.

First: B1
Second: FRVDEEFQSPFASQSRGYFWRPRN-NH2 [neuromedin U receptor agonist G]
The IC50 of the first is 2.6-fold lower: 12 nM for the first, 31 nM for the second.

First: FALFRPRN-NH2 [neuromedin U receptor agonist N]
Second: B2
The IC50 of the first is 6.8-fold lower: 22 nM for the first, 150 nM for the second. The first is the more potent here.

Going from B3 to B4, the IC50 rises from 9.1 nM to 150 nM (16-fold).

Biological target: T2, human NMUR1
Test: 125I-hNMU-25 displacement, HEK cell membranes
Experimental: as §1, §2, §3

Going from B1 to FRVDEEFQSPFASQSRGYFWRPRN-NH2 [neuromedin U receptor agonist G], the “% activity (binding)” value rises from 16% to 97%.

Going from FALFRPRN-NH2 [neuromedin U receptor agonist N] to YFGWRPRN-NH2 [neuromedin U receptor agonist C], the “% activity (binding)” value rises from 38.4% to 100%.

First: B5
Second: B2
The “% activity (binding)” value of the first is higher: 93% for the first, 1% for the second.

First: B6
Second: B3
The “% activity (binding)” value of the first is higher: 100% for the first, 23% for the second.

First: B4
Second: B7
The “% activity (binding)” value of the first is lower: 34% for the first, 96% for the second.

First: FRVDEEFQSPFASQSRGYFWRPRN-NH2 [neuromedin U receptor agonist G]
Second: YFGWRPRN-NH2 [neuromedin U receptor agonist C]
The IC50 of the first is 5-fold higher: 2.1 nM for the first, 0.42 nM for the second.

First: B5
Second: B6
The IC50 of the first is 29-fold higher: 75 nM for the first, 2.6 nM for the second. The second is the more potent here.

In the case of B7, the IC50 is reported as 14 nM.
